What was measured:
[1] = Synthesis of N-caprinoyl-amino acid derivative, N-caprinoyl-D-amino acid and N-caprinoyl-peptide using purified acylamino acid synthetase, UPLC-MS detection; type: biochemical; set-up: key: +: Detected; −: Not detected; settings: +ATP
Summary of the method: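 Purified enzyme (50 μg/mL) was incubated with 5 mM sodium caprate, 5 mM amino acid derivative, D-amino acid or peptide, 10 mM ATP, 10 mM MgCl2 and 1 mM DTT in 50 mM Tris-HCl, pH 8.0, for 24 h at 25 °C. After acidic methanol stop, UPLC-MS looked for the mass of the N-caprinoyl product.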

[2] = Synthesis of N-caprinoylamino acid using purified acylamino acid synthetase, UPLC-MS detection; type: biochemical; set-up: key: +: Detected; −: Not detected; settings: +ATP
Summary of the method: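 Purified enzyme (50 μg) with 5 mM amino acid, 5 mM sodium caprate, 10 mM ATP, 10 mM MgCl2, 1 mM DTT in Tris-HCl pH 8.0, 24 h at 25° C; product detected by UPLC-MS (ESI-negative) as the N-caprinoyl amino acid mass signal.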

[3] = substrates Carnosine and sodium caprate
[4] = substrates D-Ala and sodium caprate
[5] = substrates D-Asp and sodium caprate
[6] = substrates D-Cys and sodium caprate
[7] = substrates D-Glu and sodium caprate
[8] = substrates D-Ile and sodium caprate
[9] = substrates D-Lys and sodium caprate
[10] = substrates L-Asp-L-Phe and sodium caprate
[11] = substrates L-Gly-L-Gly and sodium caprate
[12] = substrates Sarcosine and sodium caprate
[13] = substrates Taurine and sodium caprate
[14] = substrates GABA and sodium caprate
[15] = substrates Gly and sodium caprate
[16] = substrates L-Ala and sodium caprate
[17] = substrates L-Arg and sodium caprate
[18] = substrates L-Asn and sodium caprate
[19] = substrates L-Asp and sodium caprate
[20] = substrates L-Cys and sodium caprate
[21] = substrates L-Gln and sodium caprate
[22] = substrates L-Glu and sodium caprate
[23] = substrates L-His and sodium caprate
[24] = substrates L-Ile and sodium caprate
[25] = substrates L-Leu and sodium caprate
[26] = substrates L-Lys and sodium caprate
[27] = substrates L-Met and sodium caprate
[28] = substrates L-Phe and sodium caprate
[29] = substrates L-Pro and sodium caprate
[30] = substrates L-Ser and sodium caprate
[31] = substrates L-Thr and sodium caprate
[32] = substrates L-Trp and sodium caprate
[33] = substrates L-Tyr and sodium caprate
[34] = substrates L-Val and sodium caprate
[35] = substrates β-Ala and sodium caprate

Row | signal of molecular weight corresponding to N-caprinoyl compound [1, 3] | signal of molecular weight corresponding to N-caprinoyl compound [1, 4] | signal of molecular weight corresponding to N-caprinoyl compound [1, 5] | signal of molecular weight corresponding to N-caprinoyl compound [1, 6] | signal of molecular weight corresponding to N-caprinoyl compound [1, 7] | signal of molecular weight corresponding to N-caprinoyl compound [1, 8] | signal of molecular weight corresponding to N-caprinoyl compound [1, 9] | signal of molecular weight corresponding to N-caprinoyl compound [1, 10] | signal of molecular weight corresponding to N-caprinoyl compound [1, 11] | signal of molecular weight corresponding to N-caprinoyl compound [1, 12] | signal of molecular weight corresponding to N-caprinoyl compound [1, 13] | signal of molecular weight corresponding to N-caprinoyl amino acid [2, 14] | signal of molecular weight corresponding to N-caprinoyl amino acid [2, 15] | signal of molecular weight corresponding to N-caprinoyl amino acid [2, 16] | signal of molecular weight corresponding to N-caprinoyl amino acid [2, 17] | signal of molecular weight corresponding to N-caprinoyl amino acid [2, 18] | signal of molecular weight corresponding to N-caprinoyl amino acid [2, 19] | signal of molecular weight corresponding to N-caprinoyl amino acid [2, 20] | signal of molecular weight corresponding to N-caprinoyl amino acid [2, 21] | signal of molecular weight corresponding to N-caprinoyl amino acid [2, 22] | Molecule | other results
1 | + | + | + | + | + | + | + | + | + | + | + | + | + | + | + | + | + | + | + | + | AtGH3-5: indole-3-acetic acid-amido synthetase GH3.5 from Arabidopsis thaliana, His-tagged (protein, listed as Arabidopsis thaliana, His-tag, indole-3-acetic acid-amido synthetase GH3.5 from Arabidopsis thaliana, His-tagged) MPEAPKKESLEVFDLTLDQKNKQKLQLIEELTSNADQVQRQVLEEILTRNADVEYLRRHDLNGRTDRETFKNIMPVITYEDIEPEINRIANGDKSPILSSKPISEFLTSSGTSGGERKLMPTIEEELDRRSLLYSLLMPVMSQFVPGLENGKGMYFLFIKSESKTPGGLPARPVLTSYYKSSHFKERPYDPYTNYTSPNETILCSDSYQSMYSQMLCGLCQHQEVLRVGAVFASGFIRAIKFLEKHWIELVRDIRTGTLSSLITDPSVREAVAKILKPSPKLADFVEFECKKSSWQGIITRLWPNTKYVDVIVTGTMSQYIPTLDYYSNGLPLVCTMYASSECYFGVNLRPLCKPSEVSYTLIPSMAYFEFLPVHRNNGVTNSINLPKALTEKEQQELVDLVDVKLGQEYELVVTTYAGLCRYRVGDLLRVTGFKNKAPQFSFICRKNVVLSIDSDKTDEVELQNAVKNAVTHLVPFDASLSEYTSYADTSSIPGHYVLFWELCLDGNTPIPPSVFEDCCLAVEESFNTVYRQGRVSDKSIGPLEIKIVEPGTFDKLMDYAISLGASINQYKTPRCVKFAPIIELLNSRVVDSYFSPKCPKWVPGHKQWGSN | signal of molecular weight corresponding to N-caprinoyl amino acid [2, 23]: +; signal of molecular weight corresponding to N-caprinoyl amino acid [2, 24]: +; signal of molecular weight corresponding to N-caprinoyl amino acid [2, 25]: +; signal of molecular weight corresponding to N-caprinoyl amino acid [2, 26]: +; signal of molecular weight corresponding to N-caprinoyl amino acid [2, 27]: +; signal of molecular weight corresponding to N-caprinoyl amino acid [2, 28]: +; signal of molecular weight corresponding to N-caprinoyl amino acid [2, 29]: +; signal of molecular weight corresponding to N-caprinoyl amino acid [2, 30]: +; signal of molecular weight corresponding to N-caprinoyl amino acid [2, 31]: +; signal of molecular weight corresponding to N-caprinoyl amino acid [2, 32]: +; signal of molecular weight corresponding to N-caprinoyl amino acid [2, 33]: +; signal of molecular weight corresponding to N-caprinoyl amino acid [2, 34]: +; signal of molecular weight corresponding to N-caprinoyl amino acid [2, 35]: +
2 | + | + | + | − | + | + | + | + | + | + | + | + | + | + | + | + | + | + | + | + | AtGH3-12: 4-substituted benzoates-glutamate ligase GH3.12 from Arabidopsis thaliana, His-tagged (protein, listed as Arabidopsis thaliana, His-tag, 4-substituted benzoates-glutamate ligase GH3.12 from Arabidopsis thaliana, His-tagged) MKPIFDINETFEKQLKDLTSNVKSIQDNLLEEIITPNTKTEYLQRFLIDRFDKELFKKNVPIVSYEDIKPYLDRVVNGESSDVISARTITGFLLSSGTSGGAQKMMPWNNKYLDNLTFIYDLRMQVITKHVKGVEEGKGMMFLFTKQESMTPSGLPARVATSSYFKSDYFKNRPSNWYYSYTSPDEVILCPNNTESLYCHLLCGLVQRDEVVRTGSIFASVMVRAIEVLKNSWEELCSNIRSGHLSNWVTDLGCQNSVSLVLGGPRPELADTIEEICNQNSWKGIVKRLWPNTKYIETVVTGSMGQYVPMLNYYCNDLPLVSTTYGSSETTFGINLDPLCKPEDVSYTFMPNMSYFEFIPMDGGDKNDVVDLEDVKLGCTYEPVVTNFAGLYRMRVGDIVLVTGFYNNAPQFKFVRRENVVLSIDSDKTNEEDLFKAVSQAKLVLESSGLDLKDFTSYADTSTFPGHYVVYLEVDTKEGEEKETAQFELDEEALSTCCLVMEESLDNVYKRCRFKDGSIGPLEIRVVRQGTFDSLMDFFISQGASTGQYKTPRCIKSGKALQVLETCVVAKFFSI | signal of molecular weight corresponding to N-caprinoyl amino acid [2, 23]: +; signal of molecular weight corresponding to N-caprinoyl amino acid [2, 24]: +; signal of molecular weight corresponding to N-caprinoyl amino acid [2, 25]: +; signal of molecular weight corresponding to N-caprinoyl amino acid [2, 26]: +; signal of molecular weight corresponding to N-caprinoyl amino acid [2, 27]: +; signal of molecular weight corresponding to N-caprinoyl amino acid [2, 28]: +; signal of molecular weight corresponding to N-caprinoyl amino acid [2, 29]: +; signal of molecular weight corresponding to N-caprinoyl amino acid [2, 30]: +; signal of molecular weight corresponding to N-caprinoyl amino acid [2, 31]: +; signal of molecular weight corresponding to N-caprinoyl amino acid [2, 32]: +; signal of molecular weight corresponding to N-caprinoyl amino acid [2, 33]: +; signal of molecular weight corresponding to N-caprinoyl amino acid [2, 34]: +; signal of molecular weight corresponding to N-caprinoyl amino acid [2, 35]: +

— patent publication US12281340B2, “Method of producing N-acyl-amino group-containing compound” (AJINOMOTO CO., INC., priority 2018, dated 2025)
